Assay results from patent US20230304022, “CHIMERIC POLYPEPTIDES HAVING TARGETED BINDING SPECIFICITY” (The Scripps Research Institute, published 2023).

B1: G-Avr15 site (dsDNA)
DNA 1: GATAAACCCCCTCCAA
DNA 2: TTGGAGGGGGTTTATC
B2: A-Avr15 site (dsDNA)
DNA 1: AATAAACCCCCTCCAA
DNA 2: TTGGAGGGGGTTTATT

Assays:
Avr15 TALE NTD SRC = Avr15 TALE NTD SRC (synthetic, UniProt Q56830 SEQ:151-834, K230S,Q231R,W232C (KQW to SRC))
Avr15 TALE NTD KRSNG = Avr15 TALE NTD KRSNG (synthetic, UniProt Q56830 SEQ:151-834, Q231R,W232S,S233N (KQWSG to KRSNG))
Avr15 TALE NTD SSR = Avr15 TALE NTD SSR (synthetic, UniProt Q56830 SEQ:151-834, K230S,Q231S,W232R (KQW to SSR))
Avr15 TALE NTD PKD = Avr15 TALE NTD PKD (synthetic, UniProt Q56830 SEQ:151-834, K230P,Q231K,W232D (KQW to PKD))
Avr15 TALE NTD PTR = Avr15 TALE NTD PTR (synthetic, UniProt Q56830 SEQ:151-834, K230P,Q231T,W232R (KQW to PTR))

Binder | binding result (Avr15 TALE NTD SRC) | binding result (Avr15 TALE NTD KRSNG) | binding result (Avr15 TALE NTD SSR) | binding result (Avr15 TALE NTD PKD) | binding result (Avr15 TALE NTD PTR)
B1 | binds | binds | binds |  | 
B2 |  |  |  | binds | binds
